Measured values reported in patent US5108916A, “Process for stereoselectively hydrolyzing, transesterifying or esterifying with immobilized isozyme of lipase from Candida rugosa” (priority 1989, dated 1992).

Columns and labels:
[1] = Hydrolysis of ketoprofen esters by lipases, acid by HPLC, ee via diastereomeric amides; assay type: biochemical
Protocol: To a solution of 9ml of 100mM ammonium phosphate (pH 5.5) in 50 ml Erlenmeyer flask a weighed amount of ester (either directly or dissolved in 200 ul DMF) was added. A solution of the weighed amount of enzyme in 1 ml of the same buffer was added. The mixture was agitated in a rotary shaker at 250 RPM at 35° C. typically for 22 hours. The reaction mixture was acidified with 8 drops 6(N) HCl to pH 1.5-2.0, extracted with CHCl3 (2×10 ml). The CHCl3 solution was analyzed by HPLC to determine the percent of acid produced in the hydrolysis.
The CHCl3 extract (5 ml) of the hydrolysis reaction was dried over anhydrous Na2 SO4 and filtered. The filtrate was cooled to 0° C. in stoppered vials and 100 ul of N-methylmorpholine, followed by 100 ul of isobutyl chloroformate were added. After gently shaking at 0° C. for 10 minutes, 100 ul of D-(+)-1-phenylethylamine was added and gently shaking at 0° C. was continued for 5 minutes. The reaction mixture was then shaken at room temperature for 5 minutes. The reaction mixture was washed with water (5 ml), 1(N) HCl (5 ml) and again with water (5 ml). The diastereomeric amides produced were then analyzed by HPLC on a column as specifically noted to determine the ee (%S-%R) of the acid produced by enzymatic hydrolysis of the esters.
Ketoprofen esters (50 mg) were hydrolyzed as above. HPLC analysis for the amount of acid produced for the ketoprofen monoglyceride and ketoprofen ethylene glycol ester hydrolysis were performed on Partisil 5 ODS-3 RAC column (9.4 mm×100 mm, Whatman) using CH3 OH: 10mM (NH4)H2 PO4 (60:40) at 4 ml/min and monitoring at 254 nm. HPLC analysis of the acid produced in the hydrolysis of the other esters were done on ODS-3 RAC column using CH3 OH: 10 mM (NH4)H2 PO4 (80:20) at 2ml/min and monitoring at 254 nm. The enantiomeric excess of the ketoprofen produced for each hydrolysis was determined by analysis of the amides by HPLC on ODS-3 RAC column using CH3 OH:10 mM (NH4)H2 PO4 (60:40) at 4 ml/min and monitoring at 254 nm. […]
To determine whether oleic acid could be used to enhance the rate/selectivity using other lipase and/or substrates, the following experiment was performed. 50 mg of either the diethylene glycol ester, triethylene glycol monomethyl ester, monoglyceride ester, or ethylene glycol ester was placed in 50 ml Erlenmeyer flasks. To this was added 50 mg of Lipase MY, 50 mg of the Mucor miehei lipase, 2.5 mg of the Candida cylindracea lipase (Biocatalyst), or 5 mg of lipase OF, all in 1 ml of buffer. 10 ul of pig liver esterase was also used. Oleic acid was added to the flasks at 200 ul. Buffer was added to a final volume of 10 ml, and the flasks were incubated at 35.C, 250 rpm, acidified, and extracted with CHCl3 and analyzed by HPLC as in Example 18.

[2] = Hydrolysis of R,S-HPPA methyl ester by free lipase or isozyme in aqueous buffer, R and S acids by HPLC; assay type: biochemical
Protocol: Lipase MY (Meito Sangyo), 340mg, 4g of R,S-HPPA methyl ester, and 200ml of 20mM KH2 PO4 (adjusted to pH 6.5) were mixed, with shaking, for 5.5 hours.
Analysis of the acid formed was carried out by extraction of the ester after adjustment of the aqueous solution to pH 6.5 (a slight pH drop occurs on hydrolysis) with CH2 Cl2 followed by adjusting the pH to 2 and extraction of the acid with ethyl acetate. The solution was evaporated to dryness, taken up in water and analyzed by HPLC with a Macherey Nagel-Duren Resolvosil BSA- column using 5% n-propanol, 10mM KH2 PO4, pH 5 at 2.7ml/min with detection at 220nm. At that time 35% of the R, S-ester was converted to the acid. The ratio of R and S acids was 94% R and 6% S.
Lipase MY (Meito Sangyo), Candida lipase B (Biocatalyst, Ltd), lipase OF (Meito Sangyo), and Lipase AY (Amano) were compared for stereoselectivity for production of R-HPPA from R,S-HPPA methyl ester. The preparations, in amounts shown in Table I, were added to 50 ml of 20 mM HPPA methyl ester in 50 mM KH2 PO4 pH 6.5. […] The ratio of R to S acid was determined by HPLC as described in Example 3 at approximately 16% hydrolysis of the ester.
Two hundred mls of KH2 PO4 (pH 6.5) was combined with 400 mg HPPA-Me and 500 units of T. californica acetylcholine esterase. The reaction mixture was shaken for 24 hours and then sampled and analyzed as in Example 3. […]

[3] = diethylene glycol ester, enzyme alone
[4] = ethylene glycol ester, + oleic acid
[5] = ethylene glycol ester, enzyme alone
[6] = monoglyceride ester, + oleic acid
[7] = monoglyceride ester, enzyme alone
[8] = monomethyl triethylene glycol ester, + oleic acid
[9] = monomethyl triethylene glycol ester, enzyme alone

| Molecule | % ee (R = R-acid) ([1]; diethylene glycol ester, + oleic acid) | % Acid ([1]; diethylene glycol ester, + oleic acid 200 ul) | % Acid [1, 3] | % ee (R = R-acid) [1, 3] | % Acid [1, 4] | % ee (R = R-acid) [1, 4] | % Acid [1, 5] | % ee (R = R-acid) [1, 5] | % Acid [1, 6] | % ee (R = R-acid) [1, 6] | % Acid [1, 7] | % ee (R = R-acid) [1, 7] | % Acid [1, 8] | % ee (R = R-acid) [1, 8] | % Acid [1, 9] | % ee (R = R-acid) [1, 9] | stereoselective hydrolysis of HPPA-Me to R-HPPA [2] | hydrolyzing activity on HPPA-Me ([2]; 500 units, 400 mg HPPA-Me, pH 6.5, 24 hours) |
| --- | --- | --- | --- | --- | --- | --- | --- | --- | --- | --- | --- | --- | --- | --- | --- | --- | --- | --- |
| Mucor miehei: Mucor miehei lipase (protein, UniProt P19515 95-363, looked up) Lipase: SIDGGIRAATSQEINELTYYTTLSANSYCRTVIPGATWDCIHCDATEDLKIIKTWSTLIYDTNAMVARGDSEKTIYIVFRGSSSIRNWIADLTFVPVSYPPVSGTKVHKGFLDSYGEVQNELVATVLDQFKQYPSYKVAVTGHSLGGATALLCALDLYQREEGLSSSNLFLYTQGQPRVGDPAFANYVVSTGIPYRRTVNERDIVPHLPPAAFGFLHAGEEYWITDNSPETVQVCTSDLETSDCSNSIVPFTSVLDHLSYFGINTGLCT | 2R | 20% | 24% | 41R | 10% | 42R | 17% | 54R | 4% | 35R | 20% | 40R | 6% | 1R | 26% | 36R | – | – |
| acetylcholinesterase of T. californica: acetylcholine esterase from Torpedo californica (protein, UniProt P04058 22-564, looked up) Acetylcholinesterase: DDHSELLVNTKSGKVMGTRVPVLSSHISAFLGIPFAEPPVGNMRFRRPEPKKPWSGVWNASTYPNNCQQYVDEQFPGFSGSEMWNPNREMSEDCLYLNIWVPSPRPKSTTVMVWIYGGGFYSGSSTLDVYNGKYLAYTEEVVLVSLSYRVGAFGFLALHGSQEAPGNVGLLDQRMALQWVHDNIQFFGGDPKTVTIFGESAGGASVGMHILSPGSRDLFRRAILQSGSPNCPWASVSVAEGRRRAVELGRNLNCNLNSDEELIHCLREKKPQELIDVEWNVLPFDSIFRFSFVPVIDGEFFPTSLESMLNSGNFKKTQILLGVNKDEGSFFLLYGAPGFSKDSESKISREDFMSGVKLSVPHANDLGLDAVTLQYTDWMDDNNGIKNRDGLDDIVGDHNVICPLMHFVNKYTKFGNGTYLYFFNHRASNLVWPEWMGVIHGYEIEFVFGLPLVKELNYTAEEEALSRRIMHYWATFAKTGNPNEPHSQESKWPLFTTKEQKFIDLNTEPMKVHQRLRVQMCVFWNQFLPKLLNATACDGELSS | – | – | – | – | – | – | – | – | – | – | – | – | – | – | – | – | did not stereoselectively hydrolyze | Very little hydrolyzing activity |
